Test in all cases: BLI; Octet Red96; 5 μg/mL antibody loaded onto Protein A biosensor, dipped into His-tagged OX40 extracellular domain at 200, 100 and 50 nM or 1600, 800 and 400 nM; 1:1 binding model, global fit
Assay [1] concerns the target tOX40.19.
The target in assay [2] is tOX40.23.
Assay [3] has as its target tOX40.54.
In assay [4] the target is tOX40.39.
Assay [5] has as its target tOX40.41.
Assay [6] has as its target tOX40.4.
Assay [7] addresses tOX40.35.
The target of assay [8] is tOX40.22.
The target of assay [9] is tOX40.21.
Assay [10] deals with tOX40.15.
Assay [11] has as its target tOX40.50.
Assay [12] deals with tOX40.31.
The target in assay [13] is tOX40.37.
The target of assay [14] is tOX40.40.

B1: recombinant His-tagged human OX40 extracellular domain (domain or fragment)
chain: LHCVGDTYPSNDRCCHECRPGNGMVSRCSRSQNTVCRPCGPGFYNDVVSSKPCKPCTWCNLRSGSERKQLCTATQDTVCRCRAGTQPLDSYKPGVDCAPCPPGHFSPGDNQACKPWTNCTLAGKHTLQPASNSSDAICEDRDPPATQPQETQGPPARPITVQPTEAWPRTSQGPSTRPVEVPGGRA
In the case of B1, the Kd amounted to 7.7 nM in [1]; 5.2 nM in assay [2]; 184 nM in assay [3]; 90 nM in [4]; 58.4 nM in [5]; 9 nM in assay [6]. The Kd was 2.7 nM in [7]; 7.3 nM in [8]; 7 nM in [9]; 6 nM in [10]; 29.8 nM in assay [11]; 22.4 nM in assay [12]. The Kd in assay [13] turned out to be 12.5 nM; in assay [14] it was 151 nM.

The record behind these values is publication PMC6640694.
